Earlier results as cited in publication PMC12475976.

Biological target: SREBF1 (Homo sapiens) (UniProt P36956)
Sequence (P36956 whole entry): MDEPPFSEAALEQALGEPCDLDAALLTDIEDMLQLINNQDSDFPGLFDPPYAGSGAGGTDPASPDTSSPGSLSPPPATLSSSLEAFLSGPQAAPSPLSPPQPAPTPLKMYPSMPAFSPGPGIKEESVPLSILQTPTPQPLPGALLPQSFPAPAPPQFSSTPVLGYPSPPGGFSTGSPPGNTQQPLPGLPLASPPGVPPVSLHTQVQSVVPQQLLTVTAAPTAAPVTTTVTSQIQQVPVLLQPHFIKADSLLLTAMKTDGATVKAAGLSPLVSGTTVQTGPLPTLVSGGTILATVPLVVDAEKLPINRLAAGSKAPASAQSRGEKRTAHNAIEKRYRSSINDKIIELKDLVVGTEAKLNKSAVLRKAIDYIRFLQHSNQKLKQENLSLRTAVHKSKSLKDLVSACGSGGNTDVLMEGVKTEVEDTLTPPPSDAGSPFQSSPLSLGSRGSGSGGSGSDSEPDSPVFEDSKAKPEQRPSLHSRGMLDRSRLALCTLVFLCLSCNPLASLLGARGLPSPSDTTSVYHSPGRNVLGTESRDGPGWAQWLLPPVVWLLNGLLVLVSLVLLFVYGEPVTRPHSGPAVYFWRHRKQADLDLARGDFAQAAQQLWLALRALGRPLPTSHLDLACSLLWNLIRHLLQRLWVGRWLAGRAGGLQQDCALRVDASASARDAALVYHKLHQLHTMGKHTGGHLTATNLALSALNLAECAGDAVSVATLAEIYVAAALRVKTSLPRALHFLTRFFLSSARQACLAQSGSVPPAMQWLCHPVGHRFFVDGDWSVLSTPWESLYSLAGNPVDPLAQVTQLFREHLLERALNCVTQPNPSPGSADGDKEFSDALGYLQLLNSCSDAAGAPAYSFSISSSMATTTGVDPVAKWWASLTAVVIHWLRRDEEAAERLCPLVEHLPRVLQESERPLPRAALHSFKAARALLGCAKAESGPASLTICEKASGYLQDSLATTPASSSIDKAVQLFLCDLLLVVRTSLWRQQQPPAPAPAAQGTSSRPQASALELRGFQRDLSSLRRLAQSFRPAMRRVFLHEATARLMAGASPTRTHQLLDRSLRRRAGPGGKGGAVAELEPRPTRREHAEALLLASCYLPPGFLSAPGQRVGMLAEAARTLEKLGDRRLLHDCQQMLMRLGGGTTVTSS

Vav2, sequence (P52735 whole entry): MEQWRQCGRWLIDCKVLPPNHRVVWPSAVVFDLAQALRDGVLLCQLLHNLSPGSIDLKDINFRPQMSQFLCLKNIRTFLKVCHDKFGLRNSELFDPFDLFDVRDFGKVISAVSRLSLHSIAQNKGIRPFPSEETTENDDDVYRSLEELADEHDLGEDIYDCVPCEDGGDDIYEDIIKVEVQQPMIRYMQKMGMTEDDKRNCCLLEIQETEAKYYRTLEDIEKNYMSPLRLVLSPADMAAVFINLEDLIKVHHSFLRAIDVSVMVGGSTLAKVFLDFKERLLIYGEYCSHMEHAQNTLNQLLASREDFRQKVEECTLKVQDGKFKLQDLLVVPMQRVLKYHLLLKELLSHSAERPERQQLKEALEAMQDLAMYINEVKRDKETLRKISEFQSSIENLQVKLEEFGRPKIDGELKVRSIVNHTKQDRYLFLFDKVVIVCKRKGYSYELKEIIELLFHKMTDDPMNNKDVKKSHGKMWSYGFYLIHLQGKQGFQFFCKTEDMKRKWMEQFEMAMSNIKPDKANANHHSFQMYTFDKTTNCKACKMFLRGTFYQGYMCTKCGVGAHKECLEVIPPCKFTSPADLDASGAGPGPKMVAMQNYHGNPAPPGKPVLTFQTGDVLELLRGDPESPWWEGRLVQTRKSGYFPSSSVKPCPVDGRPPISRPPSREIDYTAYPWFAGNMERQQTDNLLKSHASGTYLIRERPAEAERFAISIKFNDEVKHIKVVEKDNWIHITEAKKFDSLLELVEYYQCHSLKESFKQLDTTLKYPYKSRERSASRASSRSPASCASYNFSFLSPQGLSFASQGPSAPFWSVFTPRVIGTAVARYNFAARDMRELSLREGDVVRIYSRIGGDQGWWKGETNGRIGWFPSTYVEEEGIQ

Substance: Vav2 (from UniProt P52735)
- Kd: 8.3 nM
